In publication PMC7732855 one finds adhesion of the BLP strain (MOE 10, 1 h) to Hsp60^+ Caco-2 cells (Hsp60 overexpressed), relative to LbcWT and adhesion of the BLP strain (MOE 10, 1 h) to Hsp60^Vec Caco-2 cells (basal Hsp60), relative to LbcWT data, which are given here for two molecules.

The assay addresses heat shock protein 60 (Hsp60), surface-expressed on Caco-2 cells (human (endogenous in Caco-2)) (UniProt P10809).
Sequence of UniProt P10809 (P10809 27-573): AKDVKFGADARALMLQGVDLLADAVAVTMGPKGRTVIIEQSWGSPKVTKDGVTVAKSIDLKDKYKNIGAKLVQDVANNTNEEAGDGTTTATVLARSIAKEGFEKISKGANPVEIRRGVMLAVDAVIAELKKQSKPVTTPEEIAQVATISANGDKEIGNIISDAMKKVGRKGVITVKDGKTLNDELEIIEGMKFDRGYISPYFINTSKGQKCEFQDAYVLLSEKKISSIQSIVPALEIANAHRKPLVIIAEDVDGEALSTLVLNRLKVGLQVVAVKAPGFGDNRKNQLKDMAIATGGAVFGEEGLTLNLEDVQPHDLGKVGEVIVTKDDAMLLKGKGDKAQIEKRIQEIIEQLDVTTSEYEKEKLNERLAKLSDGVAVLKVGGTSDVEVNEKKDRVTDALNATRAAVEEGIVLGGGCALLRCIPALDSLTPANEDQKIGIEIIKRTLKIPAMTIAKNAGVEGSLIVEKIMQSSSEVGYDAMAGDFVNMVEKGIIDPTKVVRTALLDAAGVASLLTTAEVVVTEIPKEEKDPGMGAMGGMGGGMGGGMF

Molecule “Listeria adhesion protein (LAP) from Listeria monocytogenes F4244, expressed on the surface of Lactobacillus casei (strain LbcLAP^Lm) (natural protein)” returned an adhesion of the BLP strain (MOE 10, 1 h) to Hsp60^+ Caco-2 cells (Hsp60 overexpressed), relative to LbcWT of 9 fold and an adhesion of the BLP strain (MOE 10, 1 h) to Hsp60^Vec Caco-2 cells (basal Hsp60), relative to LbcWT of 4 fold.

B1: Listeria adhesion protein (LAP) from Listeria innocua F4248, expressed on the surface of Lactobacillus casei (strain LbcLAP^Lin) (natural protein)
chain: MAIKENAAQEVLEVQKVIDRLADNGQKALKAFESYNQEQVDNIVHAMALAGLDQHMPLAKLAVEETGRGLYEDKCIKNIFATEYIWNNIKNNKTVGVINEDTQTGVIEIAEPVGVVAGVTPVTNPTSTTLFKAIIAIKTRNPIIFAFHPSAQRCSSEAAKVVYDAAVAAGAPEHCIQWVEKPSLEATKQLMNHDKVALVLATGGAGMVKSAYSTGKPALGVGPGNVPAYIDKTAKIKRSVNDIILSKSFDQGMICASEQAVIVDKEVAKEVKAEMEANKCYFVKGAEFKKLESYVINPEKGTLNPDVVGKSPAWIANQAGFKVPEDTKILVAEIKGVGDKYPLSHEKLSPVLAFIEAANQAEAFDRCEEMLVYGGLGHSAVIHSTDKEVQKAFGIRMKACRIIVNAPSAQGGIGDIYNGFIPSLTLGCGSYGKNSVSQNVSATNLLNVKRIADRRNNMQWFKLPPKIFFEKYSTQYLQKMEGVERVFIVTDPGMVQFKYVDVVIEHLKKRGNDVAYQVFADVEPDPSDVTVYKGAELMKDFKPDTIIALGGGSAMDAAKGMWLFYEHPEASFFGLKQKFLDIRKRTFKYPKLGGKAKFVAIPTTSGTGSEVTPFAVITDKENNIKYPLADYELTPDVAIVDAQYVTTVPAHITADTGMDVLTHAIESYVSVMASDYTRGLSIRAIELVFENLRESVLTGDPDAREKMHNASALAGMAFANAFLGINHSLAHKIGPEFHIPHGRANAILMPHVIRYNALKPKKHALFPRYESFRADEDYARISRIIGFPAATTEEGVKSLVDEIIKLGKDVGIDMSLKGQNVAKKDLDAVVDTLADRAFMDQCTTANPKQPLVSELKEIYLEAYKGV
The molecule B1 showed an adhesion of the BLP strain (MOE 10, 1 h) to Hsp60^+ Caco-2 cells (Hsp60 overexpressed), relative to LbcWT of 9 fold and an adhesion of the BLP strain (MOE 10, 1 h) to Hsp60^Vec Caco-2 cells (basal Hsp60), relative to LbcWT of 4 fold.
